Measurements: patent publication US20220041744A1 (INNATE PHARMA, published 2022)
Numbering of substitutions follows the chain as printed.

T1: human recombinant soluble CD73 protein (human, UniProt P21589 27-547)
T1 construct: also called huCD73; rhCD73
T1 sequence: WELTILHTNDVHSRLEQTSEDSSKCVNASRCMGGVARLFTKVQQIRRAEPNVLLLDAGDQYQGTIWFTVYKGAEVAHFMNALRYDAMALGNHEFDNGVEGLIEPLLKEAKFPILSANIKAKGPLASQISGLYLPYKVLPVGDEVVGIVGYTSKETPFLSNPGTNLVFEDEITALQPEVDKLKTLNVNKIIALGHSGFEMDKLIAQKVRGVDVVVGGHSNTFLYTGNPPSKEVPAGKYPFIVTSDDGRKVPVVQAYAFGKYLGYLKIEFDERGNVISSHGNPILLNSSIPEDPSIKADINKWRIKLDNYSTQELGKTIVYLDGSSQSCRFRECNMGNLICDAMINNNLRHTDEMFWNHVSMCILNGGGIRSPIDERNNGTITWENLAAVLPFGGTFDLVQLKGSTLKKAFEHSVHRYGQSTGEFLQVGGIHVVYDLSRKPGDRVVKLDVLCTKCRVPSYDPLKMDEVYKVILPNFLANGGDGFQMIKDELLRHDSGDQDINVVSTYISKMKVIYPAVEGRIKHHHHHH

T2: human CD73 expressed at the surface of cells (human, UniProt P21589 27-549)
T2 construct: T cells in the proliferation assays; also called huCD73; CD73-expressing cells
T2 sequence: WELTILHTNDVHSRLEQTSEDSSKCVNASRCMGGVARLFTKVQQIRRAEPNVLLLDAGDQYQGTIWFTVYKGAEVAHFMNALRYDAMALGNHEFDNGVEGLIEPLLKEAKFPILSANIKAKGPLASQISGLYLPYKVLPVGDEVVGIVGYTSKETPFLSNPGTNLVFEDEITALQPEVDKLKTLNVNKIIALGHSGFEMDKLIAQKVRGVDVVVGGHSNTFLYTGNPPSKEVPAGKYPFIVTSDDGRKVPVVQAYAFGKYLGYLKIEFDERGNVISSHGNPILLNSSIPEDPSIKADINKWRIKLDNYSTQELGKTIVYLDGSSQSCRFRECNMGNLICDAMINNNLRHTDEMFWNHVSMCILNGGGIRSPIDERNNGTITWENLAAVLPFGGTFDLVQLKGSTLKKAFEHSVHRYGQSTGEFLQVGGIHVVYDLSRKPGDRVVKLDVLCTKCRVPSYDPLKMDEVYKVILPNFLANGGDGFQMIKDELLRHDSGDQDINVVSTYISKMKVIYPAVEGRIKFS

B1: chimeric parental 3C12 antibody (antibody, human IgG1, V domains shown)
VH: QIQLQQSGPELVKPGASVKVSCKASGYAFASYNMNWVKQSHGKSLDWIGYIDPYNGGSSYNLTFKGKATLTVDKSSTTAYMHLNSLTSEDSAVYYCARGYGNYKAWFAYWGQGTLVTVSA
VL: DVVMTQTPKFLLVSAGDRVTITCKASQSVSNDVAWYQQKPGQSPKLLIYYASTRYTGVPDRFTGSGYGTDFTFTISTVQAEDLAVYFCQQDYSSLTFGAGTKLELK
notes: also called HPLP; parental antibody 3C12
B2: H1L0 (antibody, human IgG1, V domains shown)
VH: QIQLVQSGAEVKKPGASVKVSCKASGYTFTSYNMYWVRQAPGQRLEWMGYIDPYNGGSSYNLTFKGRVTITRDKSASTAYMELSSLRSEDTAVYYCARGYGNYKAWFAYWGQGTLVTVSS
VL: DIQMTQSPSSLSASVGDRVTITCKASQSVSNDVAWYQQKPGKAPKLLIYYASTRYTGVPSRFSGSGSGTDFTFTISSLQPEDIATYYCQQDYSSLTFGQGTKLEIK
notes: L0 VL limits counted by alignment with L1
B3: H4L1 (antibody, human IgG1, V domains shown)
VH: B2 VH with T28A, T30A, R44S, M48I, R67K, V68A, I70L, R72V
VL: B2 VL with S67Y
B4: H2L1 (antibody, human IgG1, V domains shown)
VH: B2 VH with T28A, R44S, R72V
VL: B2 VL with S67Y
B5: H1L1 (antibody, human IgG1, V domains shown)
VH: B2 VH
VL: B2 VL with S67Y
B6: H3L0 (antibody, human IgG1, V domains shown)
VH: B2 VH with T28A, R44S, M48I, R67K, V68A, R72V
VL: B2 VL
notes: as for B2
B7: H1L2 (antibody, human IgG1, V domains shown)
VH: B2 VH
VL: B2 VL with S60D, S67Y
B8: H3L1 (antibody, human IgG1, V domains shown)
VH: B2 VH with T28A, R44S, M48I, R67K, V68A, R72V
VL: B2 VL with S67Y
B9: H2L0 (antibody, human IgG1, V domains shown)
VH: B2 VH with T28A, R44S, R72V
VL: B2 VL
notes: as for B2

molecular target: T1, human recombinant soluble CD73 protein; assay: SPR, Ab captured on Protein A, soluble huCD73 as analyte
Procedure: SPR measurements were performed on a Biacore™ T200 apparatus at 25° C. Protein-A (GE Healthcare) was immobilized on a Sensor Chip CM5 (GE Healthcare). […] The entire sensorgram sets were fitted using the 1:1 kinetic binding model. Bivalent affinities and kinetic association and dissociation rate constants are calculated.
The binding of the antibodies in Table 2 of Example 1 were tested for binding to human soluble dimeric CD73 proteins and were cloned, produced and purified. Affinity and association and dissociation constants of humanized variants were assessed by SPR analysis.

Binder | Kd [nM] | koff [s⁻¹] | kon [M⁻¹ s⁻¹]
B1 | 0.68 | – | –
B2 | 28.7 | 0.00296 | 103000
B3 | 1.7 | 0.000179 | 106000
B4 | 1.4 | 0.000118 | 83700
B5 | 0.8 | 8.43e-05 | 100000
B6 | 29.4 | 0.00797 | 271000
B7 | 0.6 | 8.38e-05 | 135000
B8 | 1.8 | 0.00014 | 78900

molecular target: T3, cynomolgus CD73 expressed on transfected cells (cynomolgus monkey (Macaca fascicularis)); assay: flow cytometry titration on transfected cells expressing cynomolgus CD73, PE goat anti-human IgG (H+L) detection, MFI
T3 construct: cell-surface expressed on a transfected cell line; Same protein as m38, which is the recombinant soluble form; It is kept apart from m38 as the first reading kept m36 and m37 apart for human CD73; also called cynomolgus CD73 protein (cell surface); cyCD73

Binder | EC50 (read off the curve) [µg/mL]
B1 | ~0.2
B3 | ~0.2
B9 | ~0.2
B5 | ~0.2
B6 | ~0.2
B7 | ~0.2

molecular target: T2, human CD73 expressed at the surface of …; assay: flow cytometry titration on transfected cells expressing human CD73, PE goat anti-human IgG (H+L) detection, MFI

Binder | EC50 (read off the curve) [µg/mL]
B2 | ~0.2
B4 | ~0.1
B9 | ~0.2
B6 | ~0.2
B8 | ~0.3
